From patent US20230416394A1

Tests used:
[1] = target: human CD39 protein (Octet assays) (human); experiment: Octet, antibody on sensor, CD39 gradient
[2] = target: 6×His tagged human CD39 (human); experiment: Biacore, antibody captured, 6×His human CD39 as analyte, 1:1 model
Chain of 6×His tagged human CD39 (human) (P49961 38-478): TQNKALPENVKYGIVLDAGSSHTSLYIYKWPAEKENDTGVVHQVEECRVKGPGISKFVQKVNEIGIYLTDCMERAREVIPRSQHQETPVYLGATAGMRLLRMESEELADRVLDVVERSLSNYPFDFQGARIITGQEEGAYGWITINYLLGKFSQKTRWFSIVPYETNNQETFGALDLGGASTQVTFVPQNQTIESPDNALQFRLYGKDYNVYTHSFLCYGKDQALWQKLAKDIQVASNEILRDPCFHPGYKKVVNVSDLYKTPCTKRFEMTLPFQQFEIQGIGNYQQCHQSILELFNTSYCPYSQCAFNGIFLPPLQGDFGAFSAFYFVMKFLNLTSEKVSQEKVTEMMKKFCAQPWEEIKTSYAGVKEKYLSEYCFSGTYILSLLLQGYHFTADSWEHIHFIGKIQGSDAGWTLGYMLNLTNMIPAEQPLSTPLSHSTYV

Chain of human CD39 protein (Octet assays) (human) (P49961 38-478): as above

B1: hu23.H5L5 (antibody, from a related filing, V domains shown)
VH: QVQLVQSGAEVKKPGASVKVSCKASGYNLKDTFLHWVRQAPGQGLEWMGRIDPANGNIKYDPKFQGRVTITADTSANTAYMELISLRSEDTAVYYCANSPYYYGSGYRIFDVWGQGTTVTVSS
VL: QIVLTQSPATLSLSPGERATLSCSAFSSVNYMHWYQQKPGQAPRLLIYTTSNLASGIPTRFSGSGSGTSYTLTISSLEPEDFAVYYCQQRSTYPFTFGQGTKLEIK
Q: How did the Kd [1] turn out when B1 was run?
A: Its Kd is 0.687 nM.

Q: What about the koff [1] of the same binder?
A: Its koff is 9.36e-05 s⁻¹.

Q: What about the kon [1] of the same binder?
A: Its kon is 136000 M⁻¹ s⁻¹.

Q: And the Kd [2]?
A: The Kd was 19.5 nM.

Q: And the koff [2]?
A: The koff was 0.0016 s⁻¹.

Q: And the kon [2]?
A: Its kon is 82200 M⁻¹ s⁻¹.
